The text below walks through data of patent US20140329742A1 (GlaxoSmithKline, published 2014).

Where no end group is shown, it is not given here.

T1: human Neuropeptide Y receptor type 2 (human, UniProt P49146 1-381)
T1 sequence (looked up): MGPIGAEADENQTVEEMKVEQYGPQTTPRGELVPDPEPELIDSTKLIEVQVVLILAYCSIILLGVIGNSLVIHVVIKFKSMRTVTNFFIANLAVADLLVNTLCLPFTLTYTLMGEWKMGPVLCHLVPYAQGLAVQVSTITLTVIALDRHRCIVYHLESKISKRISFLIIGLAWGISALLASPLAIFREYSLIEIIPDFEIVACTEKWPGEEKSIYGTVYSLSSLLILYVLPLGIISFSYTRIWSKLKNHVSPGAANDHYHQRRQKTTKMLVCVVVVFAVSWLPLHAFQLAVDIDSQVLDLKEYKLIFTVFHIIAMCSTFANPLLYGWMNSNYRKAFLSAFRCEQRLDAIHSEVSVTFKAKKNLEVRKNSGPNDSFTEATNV

The target of the first experiment is T1, human Neuropeptide Y receptor type 2. Description: cell-based or functional assay.
With PKPEAPGKDASPEELNRYYASLRKYLNWVTRQRY-NH2 [Example 31], the “hNPY Y2 pEC50 (melanophore assay)” value is 9.8.

PKPEHPGKDASPEEWNRYYASLRKYLNWVTRQRY-NH2 [Example 25]: the “hNPY Y2 pEC50 (melanophore assay)” value was found to be 9.6. As to PKPEAPGKDASPEELNRYYASLRKYLNWLTRQRY-NH2 [Example 2], the “hNPY Y2 pEC50 (melanophore assay)” value worked out at 9.8.

The target is the same in another experiment. As to the kind of experiment: cell-based or functional assay. This is another data set of the same source.
For the molecule PKPVAPGCDASPAELNRQYSDLRNYWNLVTRQRY-NH2 [Peptide 15], the “hNPY Y2 pEC50 (melanophore assay)” value is 8.9. As for PKPEAPGCDASPEEWNRYYASLRKYLNWVTRQNY-NH2 [Peptide 1], the “hNPY Y2 pEC50 (melanophore assay)” value was 7.9. Take PKPEAPGCDASPEEWNRYYASLRKYLNWVTRQHY-NH2 [Peptide 14]: the “hNPY Y2 pEC50 (melanophore assay)” value worked out at 8.2.

In the case of PKPEAPLSKQLEEEAVRYYASLRHYLNLVTRQRY-NH2 [Peptide 21], the “hNPY Y2 pEC50 (melanophore assay)” value is 8.7. Turning to IKPEAPLSKQLEEEAVRYYASLRHYLNLVTRQRY-NH2 [Peptide 2], the “hNPY Y2 pEC50 (melanophore assay)” value was determined as 8.6. For the molecule PKPEAPGEDASPKEWNRYYASLRKYLNWVTRQRY-NH2 [Peptide 3], the “hNPY Y2 pEC50 (melanophore assay)” value amounted to 9.2. As for IKPPYPGCDASPEEQNKYYASLRAYWNLVTRQRY-NH2 [Peptide 8], the “hNPY Y2 pEC50 (melanophore assay)” value is 9.3.
